Data on 17 molecules can be found in PMC10786891, “Massively parallel profiling of RNA-targeting CRISPR-Cas13d”.

B1: target 1 MT 5'PFS UUA 3'PFS UAC (mixed)
RNA 1: CACCCGUGCAAAAAUGCAGGGGUCUAAAACUGAGCGGAUAACCUCUCUAUGG
RNA 2: GGGAAUGGAUCCACAUCUACGAAUUCUUACCAUAGAGAGGUUAUCCGCUCAUACAGAUCGGAAGAGCACACGU
B2: target 1 MT 5'PFS CCG 3'PFS UCG (mixed)
RNA 1: B1 RNA 1
RNA 2: B1 RNA 2 with U27C, U28C, A29G, A53C, C54G
B3: target 1 MT 5'PFS CCG 3'PFS UCC (mixed)
RNA 1: B1 RNA 1
RNA 2: B1 RNA 2 with U27C, U28C, A29G, A53C
B4: target 1 MT 5'PFS GCG 3'PFS CCG (mixed)
RNA 1: B1 RNA 1
RNA 2: B1 RNA 2 with U27G, U28C, A29G, U52C, A53C, C54G
B5: target 1 MT 5'PFS GUC 3'PFS AGG (mixed)
RNA 1: B1 RNA 1
RNA 2: B1 RNA 2 with U27G, A29C, U52A, A53G, C54G
B6: target 1 MT 5'PFS GUC 3'PFS AGC (mixed)
RNA 1: B1 RNA 1
RNA 2: B1 RNA 2 with U27G, A29C, U52A, A53G
B7: target 1 MT 5'PFS UUA 3'PFS UAA (mixed)
RNA 1: B1 RNA 1
RNA 2: B1 RNA 2 with C54A
B8: target 1 MT 5'PFS GCG 3'PFS CCU (mixed)
RNA 1: B1 RNA 1
RNA 2: B1 RNA 2 with U27G, U28C, A29G, U52C, A53C, C54U
B9: target 1 MT 5'PFS AUA 3'PFS ACU (mixed)
RNA 1: B1 RNA 1
RNA 2: B1 RNA 2 with U27A, U52A, A53C, C54U
B10: target 1 MT 5'PFS GUC 3'PFS AGA (mixed)
RNA 1: B1 RNA 1
RNA 2: B1 RNA 2 with U27G, A29C, U52A, A53G, C54A
B11: target 1 insA 3' of 8,insA 3' of 6 (mixed)
RNA 1: B1 RNA 1
RNA 2: GGGAAUGGAUCCACAUCUACGAAUUCGUACCAUAGAGAGGUUAUACCAGCUCACCGAGAUCGGAAGAGCACACGU
B12: target 1 MT 5'PFS GGC 3'PFS CCU (mixed)
RNA 1: B1 RNA 1
RNA 2: B1 RNA 2 with U27G, U28G, A29C, U52C, A53C, C54U
B13: target 1 MT 5'PFS GGU 3'PFS CCU (mixed)
RNA 1: B1 RNA 1
RNA 2: B1 RNA 2 with U27G, U28G, A29U, U52C, A53C, C54U
B14: target 1 MT 5'PFS GUC 3'PFS AGU (mixed)
RNA 1: B1 RNA 1
RNA 2: B1 RNA 2 with U27G, A29C, U52A, A53G, C54U
B15: target 1 MT 5'PFS UUA 3'PFS CUG (mixed)
RNA 1: B1 RNA 1
RNA 2: B1 RNA 2 with U52C, A53U, C54G
B16: target 1 MT 5'PFS UUA 3'PFS CUA (mixed)
RNA 1: B1 RNA 1
RNA 2: B1 RNA 2 with U52C, A53U, C54A
B17: target 1 MT 5'PFS UUA 3'PFS CUC (mixed)
RNA 1: B1 RNA 1
RNA 2: B1 RNA 2 with U52C, A53U

Numbering of substitutions follows the chain as printed.

The data set deals with T1, EsCas13d, nuclease-dead (Eubacterium siraeum, UniProt B0MS50, R295A;H300A;R849A;H854A).
T1 sequence: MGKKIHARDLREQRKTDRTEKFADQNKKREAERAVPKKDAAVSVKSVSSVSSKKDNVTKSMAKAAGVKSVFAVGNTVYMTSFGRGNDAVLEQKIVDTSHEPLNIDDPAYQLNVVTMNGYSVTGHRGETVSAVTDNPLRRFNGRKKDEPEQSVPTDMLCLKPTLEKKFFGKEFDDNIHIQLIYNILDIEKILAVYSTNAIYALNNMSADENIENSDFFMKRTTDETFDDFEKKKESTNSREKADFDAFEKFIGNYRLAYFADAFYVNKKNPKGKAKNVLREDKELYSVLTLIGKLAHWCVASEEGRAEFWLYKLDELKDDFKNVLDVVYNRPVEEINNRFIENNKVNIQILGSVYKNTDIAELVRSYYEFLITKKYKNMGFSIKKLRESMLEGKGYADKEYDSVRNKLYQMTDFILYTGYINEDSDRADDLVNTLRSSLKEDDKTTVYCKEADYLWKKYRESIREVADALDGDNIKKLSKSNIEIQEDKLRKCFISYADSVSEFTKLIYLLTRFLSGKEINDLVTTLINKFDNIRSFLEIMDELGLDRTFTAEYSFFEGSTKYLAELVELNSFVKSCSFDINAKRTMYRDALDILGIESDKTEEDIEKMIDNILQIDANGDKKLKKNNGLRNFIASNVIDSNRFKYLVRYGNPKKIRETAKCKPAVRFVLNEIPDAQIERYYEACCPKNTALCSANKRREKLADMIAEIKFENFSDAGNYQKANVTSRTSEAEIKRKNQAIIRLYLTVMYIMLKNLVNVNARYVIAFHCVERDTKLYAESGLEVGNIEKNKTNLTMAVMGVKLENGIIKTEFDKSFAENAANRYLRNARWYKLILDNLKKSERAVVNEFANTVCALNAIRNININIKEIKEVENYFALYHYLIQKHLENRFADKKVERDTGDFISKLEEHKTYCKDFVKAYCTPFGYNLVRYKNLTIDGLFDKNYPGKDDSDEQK
The data set can be described thus: crRNA (strand 1, pre-loaded); Mg2+; 40 mM Tris-HCl pH 7.5, 150 mM NaCl, 6 mM MgCl2, 1 mM DTT, 0.1% Tween-20, 0.2 mg/ml BSA; 25 C; 10 min per concentration, then washed. The conditions noted are these: tags: His6-TwinStrep-SUMO cleaved; N-terminal SNAP kept (SNAP-Surface 488); label: 3' end held by stalled T7 RNA polymerase.
In general, Kd refers to the constant that tells how readily two partners part at equilibrium. Read a low Kd as higher affinity. As for B1, the Kd turned out to be 35 ± 7 nM.
For B2, binding was characterised by a dissociation constant (Kd) of 3.4 ± 1.3 nM.
In turn, B3 returned a Kd of 5.6 ± 2.35 nM.
On to B4, for which the dissociation constant (Kd) worked out at 12.4 ± 3.4 nM.
B5: binding was put at a Kd of 46 ± 9 nM.
Under B6 stands 9.1 ± 1.75 nM; under B7, 21.5 ± 7 nM.
Under B8 stands 18.5 ± 6.5 nM; under B9, 15.5 ± 4 nM; under B10, 19.5 ± 3.85 nM.
Turning to B11, the Kd came out at 13.8 ± 0.7 nM.
In the case of B12 it was 15.9 ± 4.7 nM; in that of B13, 75.5 ± 30.5 nM; in that of B14, 20.6 ± 2.7 nM.
The molecule B15 had a Kd of 14.9 ± 2.6 nM.
Under B16 stands roughly 47 nM; under B17, 16 ± 4 nM.
